Source: patent publication US20240301031A1 (JIANGSU HENGRUI PHARMACEUTICALS, published 2024)
Like-named read-outs stand apart in the source and are kept apart here.

T1: human APRIL (5860-AP-010/CF, R&D Systems) (human, UniProt O75888 115-250, limits assumed)
T1 sequence (looked up): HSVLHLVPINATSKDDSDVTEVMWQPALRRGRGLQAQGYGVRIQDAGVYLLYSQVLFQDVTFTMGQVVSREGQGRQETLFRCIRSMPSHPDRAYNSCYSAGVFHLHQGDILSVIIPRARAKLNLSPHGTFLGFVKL

T2: IL-12/23 p40 (Sino biological, 10052-H08H) (UniProt P29460 23-328)
T2 construct: Bought protein
T2 sequence (looked up): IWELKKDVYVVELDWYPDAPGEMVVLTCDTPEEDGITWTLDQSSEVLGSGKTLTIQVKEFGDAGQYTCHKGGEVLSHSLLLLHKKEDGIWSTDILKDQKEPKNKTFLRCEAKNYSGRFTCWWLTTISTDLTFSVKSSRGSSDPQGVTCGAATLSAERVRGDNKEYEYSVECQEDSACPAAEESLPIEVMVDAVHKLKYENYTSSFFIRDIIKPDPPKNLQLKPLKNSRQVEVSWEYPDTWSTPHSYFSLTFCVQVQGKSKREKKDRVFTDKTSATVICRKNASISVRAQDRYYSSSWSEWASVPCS


What was measured:
[1] = molecular target: T3, human BAFF (10056-HNCH, Sino biological) (human, UniProt Q9Y275 134-285); test: competition ELISA: biotin-labeled BAFF to coated BAFF-R
T3 construct: Bought protein
Procedure: The blocking activity of the antibodies and the fusion proteins for receptors and ligands such as BAFF/BAFF-R, BAFF/BCMA, BAFF/TACI, APRIL/BCMA, APRIL/TACI, and p40/IL-12R1 was assayed by the ELISA method. The specific procedures were as follows:
(§1) A receptor protein was diluted to 2 μg/mL with PBS at pH 7.4 (BasalMedia, B320) and added to a 96-well microplate (Corning, 3590) at 100 μL/well. The plate was incubated at 4° C. overnight. After the liquid was discarded, 200 μL of 1% Casein blocking solution (Thermo, 37528) was added to each well for blocking, and the plate was incubated at 37° C. for 2 h. After the blocking was completed, the blocking solution was discarded, and the plate was washed 3 times with a PBST buffer (PBS at pH 7.4 containing 0.1% tween-20) for later use. A biotin-labeled ligand protein at a fixed concentration was mixed with the antibody or fusion protein diluted in gradient, pre-incubated at 37° C. for 30 min, and added to a blocked microplate. The plate was incubated at 37° C. for 1.5 h. After the incubation was completed, the plate was washed 3 times with PBST. 100 μL of streptavidin-HRP (Invitrogen, 434323, diluted at a ratio of 1:4000) was added to each well, and the plate was incubated at 37° C. for 1 h. The supernatant was removed, and the plate was washed 3 times with PBST. 100 μL of TMB chromogenic substrate (KPL, 5120-0077) was added to each well, and the plate was incubated at room temperature for 10-15 min. The reaction was stopped by adding 50 μL of 1 M H₂SO₄ to each well. The plate was read for absorbance values at 450 nm on a microplate reader, the curves for the inhibition of the binding of the ligands to the receptors were fitted with software, and the IC₅₀ values were calculated.

[2] = molecular target: T4, BAFF (ACROBiosystems, BAF-H5248) (UniProt Q9Y275 134-285); test: ELISA, fusion protein coated, BAFF titrated, Anti-His-HRP
T4 construct: Bought protein used in the ELISA with coated test sample
Procedure: The binding activity of the TACI fusion proteins for BAFF and APRIL was assayed by the ELISA method (coating a test fusion protein sample). The specific procedures were as follows:
The test sample was diluted to 2 μg/mL with a PBS (BasalMedia, B320) buffer at pH 7.4 and added to a 96-well microplate (Corning, 3590) at 100 μL/well. The plate was incubated at 4° C. overnight. After the liquid was discarded, 300 μL of 5% skim milk (BD, 232100) diluted with PBS was added to each well for blocking, and the plate was incubated at 37° C. for 2 h. After the blocking was completed, the blocking solution was discarded, and the plate was washed 3 times with a PBST buffer (PBS at pH 7.4 containing 0.1% tween-20). 100 μL of BAFF (ACROBiosystems, BAF-H5248) or APRIL (R&D Systems, 5860-AP-010/CF) diluted in a gradient was added to each well, and the plate was incubated at 37° C. for 1 h. After the incubation, the plate was washed 3 times with PBST. When detecting the binding to BAFF, 100 μL of Anti-His-HRP (Sino biological, 105327-MM02T-H, diluted at a ratio of 1:2000) was added to each well; when detecting the binding to APRIL, 100 μL of anti-HA-HRP (Abcam, ab1190, diluted at a ratio of 1:4000) was added to each well. The plate was incubated at 37° C. for 1 h. The plate was washed 3 times with PBST. 100 μL of TMB chromogenic substrate (KPL, 5120-0077) was added to each well, and the plate was incubated at room temperature for 10-15 min. The reaction was stopped by adding 50 μL of 1 M H₂SO₄ to each well. The plate was read for absorbance values at 450 nm on a microplate reader, the binding curves of the antibodies to an antigen were fitted with software, and the EC₅₀ values were calculated.

[3] = molecular target: T5, BAFF (R&D Systems, 7537-BF) (UniProt Q9Y275 134-285); test: cell-based or functional assay
[4] = molecular target: T1, human APRIL (5860-AP-010/CF, R&D …); test: cell-based or functional assay
[5] = molecular target: T5, BAFF (R&D Systems, 7537-BF); test: cell-based or functional assay; remark: listed apart in the source
[6] = molecular target: T3, human BAFF (10056-HNCH, Sino biological); test: competition ELISA: BAFF-R coated on the plate, biotin-labelled BAFF at a fixed concentration pre-incubated with the diluted sample, streptavidin-HRP, OD450 (blocked ligand-receptor pair: BAFF/BAFF-R)
Procedure: as §1, with “100 μL of TMB chromogenic substrate (KPL, 5120-0077) was added to each well, and the plate was incubated at room temperature for 10-15 min. The reaction was stopped by adding 50 μL of 1 M H₂SO₄ to each well.” left out, “calculated. […]” for “calculated.”

[7] = molecular target: T1, human APRIL (5860-AP-010/CF, R&D …); test: ELISA, APRIL coated
[8] = molecular target: T6, mouse BAFF (BAF-M521y, Acro Biosystems) (mouse, UniProt Q9WU72 127-309); test: SPR (Biacore), sample captured on Protein A, antigen flowed, 1:1 fit
T6 construct: Bought protein
Procedure: (§2) A certain amount of test sample was subjected to affinity capture by a biosensor chip Protein A (GE, 29127556), then antigens at a series of concentration gradients were allowed to flow on the surface of the chip. The reaction signals were detected in real time by using Biacore (GE, 8K) to obtain association and dissociation curves. After the dissociation was completed for each cycle, the biochip was washed and regenerated with a 10 mM glycine-hydrochloric acid solution at pH 1.5 (GE, BR-1003-54). The experimental data were fitted using BIAevaluation version 4.1, GE software with a 1:1 model to obtain affinity values. The related antigen proteins used in this assay are as follows: human IL-23 (CT048-H08H, Sino biological), human IL-12 (CT050-H08H, Sino biological), human BAFF (10056-HNCH, Sino biological), human APRIL (5860-AP-010/CF, R&D Systems), cynomolgus monkey p40 (10215-CL, R&D Systems), cynomolgus monkey BAFF (BAF-CM412B, Kactus), cynomolgus monkey APRIL (APR-CM410B, Kactus), mouse BAFF (BAF-M521y, Acro Biosystems), and mouse APRIL (7907-AP/CF, R&D Systems).

[9] = molecular target: T7, cynomolgus monkey BAFF (BAF-CM412B, Kactus) (cynomolgus monkey, UniProt A0A2K5V2X4 134-285); test: as above
T7 construct: Bought protein
Procedure: as §2

[10] = molecular target: T3, human BAFF (10056-HNCH, Sino biological); test: as above
Procedure: as §2

[11] = molecular target: T2, IL-12/23 p40 (Sino biological, …); test: ELISA, IL-12/23 p40 coated
[12] = molecular target: T3, human BAFF (10056-HNCH, Sino biological); test: competition ELISA: biotin-labeled BAFF to coated BCMA
Procedure: as §1, with “100 μL of TMB chromogenic substrate (KPL, 5120-0077) was added to each well, and the plate was incubated at room temperature for 10-15 min. The reaction was stopped by adding 50 μL of 1 M H₂SO₄ to each well.” left out, “calculated. […]” for “calculated.”

[13] = molecular target: T3, human BAFF (10056-HNCH, Sino biological); test: competition ELISA: biotin-labeled BAFF to coated TACI
Procedure: as §1, with “100 μL of TMB chromogenic substrate (KPL, 5120-0077) was added to each well, and the plate was incubated at room temperature for 10-15 min. The reaction was stopped by adding 50 μL of 1 M H₂SO₄ to each well.” left out, “calculated. […]” for “calculated.”

Binder | IC50 [1] | EC50 [2] | IC50 (nM) for the inhibition of the BAFF-induced B cell proliferation [3] | IC50 (nM) for the inhibition of the APRIL-induced B cell proliferation [4] | further results
TACI-9-15Fc6 fusion protein (Fc fusion, Full-length chain) STSCREEQGEFYDHLLRDCISCASICGQHPKQCAAFCEEPKSSDKTHTCPPCPAPEAEGAPSVFLFPPKPKDTLMISRTPEVTCVVVDVSHEDPEVKFNWYVDGVEVHNAKTKPREEQYNSTYRVVSVLTVLHQDWLNGKEYKCKVSNKALPSSIEKTISKAKGQPREPQVYTLPPSRDELTKNQVSLTCLVKGFYPSDIAVEWESNGQPENNYKTTPPVLDSDGSFFLYSKLTVDKSRWQQGNVFSCSVMHEALHNHYTQKSLSLSPGK | 1.87 nM | 8.48 nM | 0.0481 nM | 0.14 nM | –
TACI-9-15Fc8 fusion protein (Fc fusion, Full-length chain) STSCREEQGEFYDHLLRDCISCASICGQHPKQCAAFCEEPKSSDKTHTCPPCPAPEAEGAPSVFLFPPKPKDTLMISRTPEVTCVVVDVSHEDPEVKFNWYVDGVEVHNAKTKPREEQYNSTYRVVSVLTVLHQDWLNGKEYKCKVSNKALPSSIEKTISKAKGQPREPQVYTLPPSRDELTKNQVSLTCLVKGFYPSDIAVEWESNGQPENNYKTTPPVLDSDGSFFLYSKLTVDKSRWQQGNVFSCSVMHEALHNHYTQKSLSLSPGGGGSSTSCREEQGEFYDHLLRDCISCASICGQHPKQCAAFCESK | 1.56 nM | 10.5 nM | 0.0291 nM | 0.00477 nM | –
TACI-9-15Fc7 fusion protein (Fc fusion, Full-length chain) STSCREEQGEFYDHLLRDCISCASICGQHPKQCAAFCEEPKSSDKTHTCPPCPAPEAEGAPSVFLFPPKPKDTLMISRTPEVTCVVVDVSHEDPEVKFNWYVDGVEVHNAKTKPREEQYNSTYRVVSVLTVLHQDWLNGKEYKCKVSNKALPSSIEKTISKAKGQPREPQVYTLPPSRDELTKNQVSLTCLVKGFYPSDIAVEWESNGQPENNYKTTPPVLDSDGSFFLYSKLTVDKSRWQQGNVFSCSVMHEALHNHYTQKSLSLSPGGGGSSTSCREEQGEFYDHLLRDCISCASICGQHPKQCAAFCEQK | 1.38 nM | 8.95 nM | 0.0244 nM | 0.00481 nM | –
TACI-9-15Fc9 fusion protein (Fc fusion, Full-length chain) STSCREEQGEFYDHLLRDCISCASICGQHPKQCAAFCEEPKSSDKTHTCPPCPAPEAEGAPSVFLFPPKPKDTLMISRTPEVTCVVVDVSHEDPEVKFNWYVDGVEVHNAKTKPREEQYNSTYRVVSVLTVLHQDWLNGKEYKCKVSNKALPSSIEKTISKAKGQPREPQVYTLPPSRDELTKNQVSLTCLVKGFYPSDIAVEWESNGQPENNYKTTPPVLDSDGSFFLYSKLTVDKSRWQQGNVFSCSVMHEALHNHYTQKSLSLSPGGGGSSTSCREEQGEFYDHLLRDCISCASICGQHPKQCAAFCESS | 1.19 nM | 8.94 nM | 0.0262 nM | 0.00947 nM | –
Belimumab (antibody, human IgG1, lambda, V domains shown, Marketed control antibody; also called anti-BAFF antibody belimumab) VH: QVQLQQSGAEVKKPGSSVRVSCKASGGTFNNNAINWVRQAPGQGLEWMGGIIPMFGTAKYSQNFQGRVAITADESTGTASMELSSLRSEDTAVYYCARSRDLLLFPHHALSPWGRGTMVTVSS VL: SSELTQDPAVSVALGQTVRVTCQGDSLRSYYASWYQQKPGQAPVLVIYGKNNRPSGIPDRFSGSSSGNTASLTITGAQAEDEADYYCSSRDSSGNHWVFGGGTELTVLG | – | – | – | – | IC50 (nM) for the inhibition of the BAFF-induced B cell proliferation [5]: 0.146 nM; IC50 (read off the curve) [6]: ~0.7 nM; binding result [7]: no binding; Kd [8]: 0.104 nM; koff [8]: 0.000144 s⁻¹; kon [8]: 1.38e+06 M⁻¹ s⁻¹; Kd [9]: 0.459 nM; koff [9]: 0.000221 s⁻¹; kon [9]: 481000 M⁻¹ s⁻¹; Kd [10]: 0.105 nM; koff [10]: 0.000171 s⁻¹; kon [10]: 1.64e+06 M⁻¹ s⁻¹; binding result [11]: no binding; IC50 [12]: 0.458 nM; IC50 [13]: 0.567 nM
